Results on two molecules are retold here after patent publication US20200283528A1.

The target of assay [1] is human PDL1 expressed on cells (human) (UniProt Q9NZQ7). Nature of the assay: cell-based or functional assay.
Assay [2] addresses human PDL1 (recombinant, soluble) (human) (UniProt Q9NZQ7). Nature of the assay: PDL1/PD-1 competition ELISA; PD-1 coated, biotinylated PDL1 1 ng/ml. A general note: In an ELISA, binding on a coated surface is turned into a signal by an enzyme label.
Assay [3] has as its target Fc tagged human PDL1 (human) (UniProt Q9NZQ7). Nature of the assay: SPR Biacore T200; PDL1-Fc captured; molecule 0.12-90 nM.
Assay [4] concerns the target human CD137-Fc chimeric protein (human) (UniProt Q07011). The assay is described as follows: SPR Biacore T200; CD137-Fc captured; molecule as analyte. For orientation: Surface plasmon resonance follows binding to a sensor surface in real time, without labels.
Assay [5] deals with human PDL1 (recombinant, soluble) (human) (UniProt Q9NZQ7). Nature of the assay: PDL1/B7-1 competition ELISA; B7-1 coated, biotinylated PDL1 40 ng/ml.

Numbering of substitutions follows the chain as printed.

B1: PRO1476 (scDb-scFv: 33-03-G02 sc03 / 38-02-A04 sc013 / 19-01-H04 sc03) (protein, from a related filing)
chain: DIQMTQSPSSLSASVGDRVTITCQASQSINNVLAWYQQKPGKAPKLLIYRASTLASGVPSRFSGSGSGTDFTLTISSLQPEDFATYYCQSSYGNYGDFGCGTKVTVLGGGGGSQSQLQESGPGLVKPSETLSLTCKASGFSFSSGYDMCWVRQPPGKGLEWIACVVAGSVDITYYASWAKGRVTISKDSSKNQVSLKLSSVTAADTAVYFCARKDAYSDAFNLWGQGTLVTVSSGGGGSGGGGSGGGGSGGGGSFQLTQSPSSLSASVGDRVTITCQASQSINDYLAWYQQKPGKSPKLLIYKASTLASGVPSRFSGSGSGTDFTLTISSLQPEDFATYYCQQGYIITDIDNVFGTGTKVTVLGGGGGSEVQLVESGGGLVQPGGSLRLSCAASGFSFSNSYWICWVRQAPGKCLEWIGCTFVGSSDSTYYANWAKGRFTISRDNSKNTVYLQMNSLRAEDTAVYYCARHPSDAVYGYANNLWGQGTLVTVSSGGGGSGGGGSIQMTQSPSSLSASVGDRVTITCQSSESVYSNNQLSWYQQKPGQPPKLLIYDASDLASGVPSRFSGSGSGTDFTLTISSLQPEDFATYYCAGGFSSSSDTAFGGGTKLTVLGGGGGSGGGGSGGGGSGGGGSEVQLVESGGGLVQPGGSLRLSCAASGFSLSSNAMGWVRQAPGKGLEYIGIISVGGFTYYASWAKGRFTISRDNSKNTVYLQMNSLRAEDTATYFCARDRHGGDSSGAFYLWGQGTLVTVSS
The term IC50 denotes the concentration needed to halve the response being measured. One may read the Kd as the constant that tells how readily two partners part at equilibrium. A high value points to lower affinity. By koff is commonly meant the first-order rate constant of dissociation. A lower koff goes with slow dissociation. A word on the kon: it is a measure of how fast the partners come together. A high value points to faster complex formation. Take B1: in assay [1], the NF-AT potency assay IC50 (with HSA) turned out to be 53.5 ng/mL and the NF-AT potency assay rel. IC50 (IC50, Avelumab/IC50, test molecule) (with HSA) was 0.66. Besides, in assay [2], the IC50 turned out to be 2.84 ng/mL and the rel. IC50 (IC50, Avelumab/IC50, test molecule) turned out to be 0.8. In addition, in assay [3], the Kd worked out at 0.009 nM, the koff is 3.1e-05 s⁻¹ and the association rate constant (kon) stood at 3.4e+06 M⁻¹ s⁻¹. In assay [4], this molecule yielded a Kd of 1.1 nM, a koff of 0.00037 s⁻¹ and a kon of 350000 M⁻¹ s⁻¹. In assay [5], the 50% inhibitory concentration (IC50) is 9.49 ng/mL and the rel. IC50 (IC50, Avelumab/IC50, test molecule) was 1.1.

B2: PRO1432 (scDb-scFv: 33-03-G02 sc18 / 38-02-A04 sc013 / 19-01-H04 sc03) (protein, from a related filing)
chain: B1 chain with S115V, F210Y, F255I, L257M, S296A
In assay [1], B2 came in with an NF-AT potency assay IC50 (with HSA) of 18.5 ng/mL and an NF-AT potency assay rel. IC50 (IC50, Avelumab/IC50, test molecule) (with HSA) of 1.98. In assay [2], the IC50 was 3.26 ng/mL and the rel. IC50 (IC50, Avelumab/IC50, test molecule) is 0.43. Also, in assay [3], the Kd came to 0.011 nM, the koff amounted to 4.4e-05 s⁻¹ and the kon was 4.2e+06 M⁻¹ s⁻¹. In assay [4], this molecule showed a Kd of 0.75 nM, a koff of 0.00045 s⁻¹ and a kon of 600000 M⁻¹ s⁻¹. In assay [5], the IC50 was 2.83 ng/mL and the rel. IC50 (IC50, Avelumab/IC50, test molecule) worked out at 0.99.
